Experimental data taken from PMC10349056, “The combined action of the intracellular regions regulates FGFR2 kinase activity” (Communications Biology, 2023).
Where no end group is shown, it is not given here.

Assays:
Assay in all cases: MST; JM labelled with Atto 488, serial dilutions of KD titrated, 25 °C; 20 mM HEPES, 150 mM NaCl, 1 mM TCEP, 0.01% Tween 20, pH 7.5; the text calls the constant of KD^pY1 apparent (Kd,app)
Conditions in all cases: both partners purified
[1] = target: T1, FGFR2 kinase domain, phosphorylation state pY4 (UniProt P21802-3 465-764, Y658F (worked out from the printed order of phosphorylation) | Y734F (worked …, phosphotyrosine at 657, 587, 467 and 589))
T1 construct: FGFR2 (IIIb isoform) kinase domain, residues 465-764; numbers count on: FGFR2IIIb (C1 isoform, 822 residues); also called KD^pY4; source: E. coli BL21(DE3), purified (Talon, Superdex 75)

[2] = target: T2, FGFR2 kinase domain, phosphorylation state pY5 (UniProt P21802-3 465-764, Y734F (worked out from the printed order of phosphorylation), phosphotyrosine at 657, 587, 467, 589 and 658)
T2 construct: FGFR2 (IIIb isoform) kinase domain, residues 465-764; numbers count on: FGFR2IIIb (C1 isoform, 822 residues); also called KD^pY5; source: E. coli BL21(DE3), purified (Talon, Superdex 75)

[3] = target: T3, FGFR2 kinase domain K518I (catalytically inactive, non-phosphorylatable) (UniProt P21802-3 465-764, K518I)
T3 construct: FGFR2 (IIIb isoform) kinase domain, residues 465-764; numbers count on: FGFR2IIIb (C1 isoform, 822 residues); also called KD^K518I; source: E. coli BL21(DE3), purified (Talon, Superdex 75)

[4] = target: T4, FGFR2 kinase domain, phosphorylation state pY2 (UniProt P21802-3 465-764, Y467F (worked out from the printed order of phosphorylation) | Y589F (worked …, phosphotyrosine at 657 and 587))
T4 construct: FGFR2 (IIIb isoform) kinase domain, residues 465-764; numbers count on: FGFR2IIIb (C1 isoform, 822 residues); also called KD^pY2; source: E. coli BL21(DE3), purified (Talon, Superdex 75)
T4 sequence (P21802 464-763 Y466F/Y588F/Y657F/Y733F): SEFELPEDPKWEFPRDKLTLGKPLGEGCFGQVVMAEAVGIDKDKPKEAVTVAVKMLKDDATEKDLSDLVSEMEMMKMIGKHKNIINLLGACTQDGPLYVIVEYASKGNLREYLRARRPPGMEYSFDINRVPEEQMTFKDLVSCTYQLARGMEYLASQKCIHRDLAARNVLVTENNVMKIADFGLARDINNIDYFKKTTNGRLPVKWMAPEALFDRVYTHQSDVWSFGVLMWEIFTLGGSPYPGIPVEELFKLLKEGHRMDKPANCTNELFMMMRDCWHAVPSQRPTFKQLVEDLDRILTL

T1 sequence (P21802 464-763 Y657F/Y733F): as the sequence (P21802 464-763 Y466F/Y588F/Y657F/Y733F) above, with F3Y, F125Y counted along it
T2 sequence (P21802 464-763 Y733F): as the sequence (P21802 464-763 Y466F/Y588F/Y657F/Y733F) above, with F3Y, F125Y, F194Y counted along it
T3 sequence (P21802 464-763 K517I): as the sequence (P21802 464-763 Y466F/Y588F/Y657F/Y733F) above, with F3Y, K54I, F125Y, F194Y, F270Y counted along it

B1: FGFR2 juxtamembrane region (407-462), labelled with Atto 488 (peptide, UniProt P21802-3 407-462, looked up)
chain: KPDFSSQPAVHKLTKRIPLRRQVTVSAESSSSMNSNTPLVRITTRLSSTADTPMLA
modifications: also: labelled with Atto 488
notes: FGFR2 (IIIb isoform) juxtamembrane region, residues 407-462; numbers count on: FGFR2IIIb (C1 isoform, 822 residues); also called JM; 407Juxtamembrane region462; source: synthetic peptide, bought: Genscript
Q: How did the Kd [1] turn out when B1 was run?
A: 10.2 ± 1.33 µM

Q: And the Kd [2]?
A: 22.5 ± 1.8 µM

Q: What about the Kd [3] of the same binder?
A: 13.4 ± 0.994 µM

Q: And the Kd [4]?
A: 6.98 ± 0.877 µM
